From paper PMC10602183 (Research Square, 2023)

How the values were obtained:
[1] = molecular target: T1, wild type gp120 Env protein of HIV-1 JR-FL (HIV-1 isolate JR-FL, UniProt Q75760, strain); assay: ELISA; mAb64 against gp120, gp120-Core or their D368R mutant protein, as previously described; conditions: both partners purified
T1 construct: gp120 subunit of Env (cut product of gp160) of HIV-1 isolate JR-FL; The ELISA methods name gp120 and gp120-Core proteins; also called JR-FL gp120

[2] = molecular target: T2, wild type gp120 Env protein of HIV-1 YU2 (HIV-1 isolate YU2, UniProt P35961); assay: as above; conditions: both partners purified
T2 construct: gp120 subunit of Env (cut product of gp160) of HIV-1 isolate YU2; The ELISA methods name gp120 and gp120-Core proteins; also called YU2 gp120

[3] = molecular target: T3, gp120 derived from HIV-1 SF162, biotinylated (HIV-1 isolate SF162, UniProt P19550, strain, biotin (Lynx biotinylation kit)); assay: flow cytometry on cells; HmAb64 blocking the staining of primary human CD4+ T cells by biotinylated gp120 (antibody and gp120 both purified proteins in solution); conditions: both partners purified
T3 construct: gp120 subunit of Env (cut product of gp160) of HIV-1 isolate SF162; also called SF162 gp120

A244 gp120 = molecular target: T4, A244 gp120 (HIV-1 isolate A244); assay: SPR; Biacore 3000, CM4 or CM5 chips; gp120 or BG505-SOSIP amine-coupled to about 750 RU; HBS pH 7.4, 3 mM EDTA, 0.005% Tween-20, 0.05% carboxymethyl-dextran; 25 ul/min, 25 °C; conditions: both partners purified
T4 construct: gp120 subunit of Env (cut product of gp160) of HIV-1 isolate A244; also called gp120 protein from A244 viral isolate

[4] = molecular target: T5, HIV-1 SF162 Env on infected CD4+ T cells (HIV-1 isolate SF162, UniProt P19550, strain); assay: flow cytometry on cells; primary human CD4+ T cells infected with HIV SF162 for 3 days, stained with HmAb64 (2 ug), goat anti-human-PE; uninfected cells as control; conditions: one partner purified
T5 construct: Env as the target follows from the antibody's specificity; also called HIV-1 on cell surface; SF162 infected CD4+ T cells; source: primary human CD4+ T cells infected with HIV SF162, on cells

Measured: binding result

B1: HmAb64 (antibody, V domains shown)
VH: QVQLVQSGAEVKKPGASVKVSCKASGYTFTSYDITWVRQAPGQGLEWMGWISAYNGDTNYAQRLQGRVTMTTDTSTSTAYMELRSLRSDDTAVYYCARAKHTVLVTAMRWFDPWGQGTLVTVSS
VL: DIQMTQSPSSLSASVGDRVTITCRASQSISNYLNWYQQKPGKAPKLLISATSSLQSGVPSRFSGSGSGTDFTLTISSLQPDDFATYYCQQSYSTPWTFGQGTKLEIK
notes: germline IGHV1-18*01, CDR H3 of 15 aa (Kabat); full-length human IgG heavy chain cloned from clone #64; germline IGKV1-39*01, CDR L3 of 9 aa (Kabat); kappa chain cloned from clone #64; Human IgG, kappa; also called clone #64; human IgG (HmAb64)
binds: all assays above
